Assay results from patent US20050144671A1 (ARIZONA BD OF REGENTS BEHALF OF UNIV OF ARIZONA, published 2005).

Target: T1, S-tag-ABI2 (full-length ABI2 cloned in pCITE4a, in vitro translated) (UniProt O04719 1-423)
T1 construct: also called S-tagged ABI2; not shown: S-tag encoded by pCITE4a
T1 sequence (looked up): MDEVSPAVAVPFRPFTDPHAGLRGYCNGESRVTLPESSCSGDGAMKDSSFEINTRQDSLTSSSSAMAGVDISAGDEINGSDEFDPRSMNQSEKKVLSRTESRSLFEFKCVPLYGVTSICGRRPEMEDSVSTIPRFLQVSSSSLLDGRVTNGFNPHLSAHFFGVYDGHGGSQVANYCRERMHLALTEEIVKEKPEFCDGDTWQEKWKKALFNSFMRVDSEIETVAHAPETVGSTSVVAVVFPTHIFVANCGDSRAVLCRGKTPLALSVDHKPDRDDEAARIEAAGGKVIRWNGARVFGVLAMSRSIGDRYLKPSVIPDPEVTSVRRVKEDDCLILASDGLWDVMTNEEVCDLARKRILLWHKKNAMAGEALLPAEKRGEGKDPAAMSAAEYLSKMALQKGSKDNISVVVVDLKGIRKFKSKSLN
Assay: in vitro S-tag pull-down of 35S-labeled Snow1
Procedure: In-vitro pull down assay: In-vitro pull-down assays were conducted to confirm the physical interaction of Snow1 and Ice1. Full-length snow1 cloned in pGEM-T easy and AtMyb79 (cloned in EcoR I and Xho I sites of pBCSK Stratagene) were used. Full-length Ice1 and ABI2 were cloned in EcoRI/SalI and NcoI/EcoRI sites of pCITE4a. 2 μg each of the linearized plasmid were in vitro transcribed using Megascript T7 RNA polymerase kit (Ambion). 10 μg of the purified transcript of snow1 and AtMyb79 were in vitro translated using Flexi Rabbit Reticulocyte system (Promega) in presence of ³⁵S-methionine. S-tag-Ice1 and S-tag-ABI2 transcripts were translated in absence of ³⁵S-methionine and their proteins were purified using S-tag purification kit (Novagen) as per the manufacturer's instructions. S-Tag Ice1 and S-tag ABI2 bound on the S-Tag slurry were used to pull down ³⁵S-labeled proteins. In another experiment ³⁵S-labeled S-tag Ice was produced and was used for pull-down using either GST-Snow1 or GST-Myb79 proteins. Pull-down assays were conducted as described (Haftler et al 2000).

B1: 35S-labeled Snow1 (full-length snow1 in pGEM-T easy, in vitro transcribed and translated) (other)
chain: MGRAPCCEKMGLKRGPWTPEEDQILVSFILNHGHSNWRALPKQAGLLRCGKSCRLRWMNYLKPDIKRGNFTKEEEDAIISLHQILGNRWSAIAAKLPGRTDNEIKNVWHTHLKKRLEDYQPAKPKTSNKKKGTKPKSESVITSSNSTRSESELADSSNPSGESLFSTSPSTSEVSSMTLISHDGYSNEINMDNKPGDISTIDQECVSFETFGADIDESFWKETLYSQDEHNYVSNDLEVAGLVEIQQEFQNLGSANNEMIFDSEMELLVRCIGICE
modifications: 35S-methionine label
  binding result: no binding
